Numbering of substitutions follows the chain as printed. Numbers in names are those of the source.
T1: EsCas13d, nuclease-dead (Eubacterium siraeum, UniProt B0MS50, R295A;H300A;R849A;H854A)
T1 sequence: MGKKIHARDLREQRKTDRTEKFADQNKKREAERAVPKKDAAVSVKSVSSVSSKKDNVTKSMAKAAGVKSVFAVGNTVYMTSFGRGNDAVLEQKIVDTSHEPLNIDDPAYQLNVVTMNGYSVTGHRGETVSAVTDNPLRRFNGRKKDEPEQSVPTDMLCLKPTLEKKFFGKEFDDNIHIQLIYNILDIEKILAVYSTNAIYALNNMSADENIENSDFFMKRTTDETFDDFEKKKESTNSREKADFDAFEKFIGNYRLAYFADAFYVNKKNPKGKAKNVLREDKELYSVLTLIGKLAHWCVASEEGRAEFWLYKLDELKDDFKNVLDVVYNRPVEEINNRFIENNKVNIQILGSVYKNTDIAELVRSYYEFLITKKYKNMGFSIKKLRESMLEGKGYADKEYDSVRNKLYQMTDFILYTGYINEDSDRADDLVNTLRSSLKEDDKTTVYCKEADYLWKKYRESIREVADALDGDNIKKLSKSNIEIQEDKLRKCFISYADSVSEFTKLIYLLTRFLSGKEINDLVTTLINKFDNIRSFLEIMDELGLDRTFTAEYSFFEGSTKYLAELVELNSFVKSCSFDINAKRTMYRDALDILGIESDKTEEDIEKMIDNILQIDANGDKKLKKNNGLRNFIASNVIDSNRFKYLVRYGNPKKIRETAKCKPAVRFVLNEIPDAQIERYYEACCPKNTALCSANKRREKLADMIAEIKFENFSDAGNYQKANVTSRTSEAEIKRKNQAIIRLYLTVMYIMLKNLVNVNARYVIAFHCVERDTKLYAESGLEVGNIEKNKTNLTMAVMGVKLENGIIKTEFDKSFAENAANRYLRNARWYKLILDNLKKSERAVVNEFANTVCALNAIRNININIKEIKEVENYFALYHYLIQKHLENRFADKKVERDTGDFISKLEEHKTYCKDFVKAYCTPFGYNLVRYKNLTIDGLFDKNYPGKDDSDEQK

B1: target 1 C4G,C6G (mixed)
RNA 1: CACCCGUGCAAAAAUGCAGGGGUCUAAAACUGAGCGGAUAACCUCUCUAUGG
RNA 2: GGGAAUGGAUCCACAUCUACGAAUUCGUACCAUAGAGAGGUUAUCGGGUCACCGAGAUCGGAAGAGCACACGU
B2: target 1 insA 3' of 5,insU 3' of 4 (mixed)
RNA 1: B1 RNA 1
RNA 2: GGGAAUGGAUCCACAUCUACGAAUUCGUACCAUAGAGAGGUUAUCCGACUUCACCGAGAUCGGAAGAGCACACGU
B3: target 1 insU 3' of 18,insC 3' of 12 (mixed)
RNA 1: B1 RNA 1
RNA 2: GGGAAUGGAUCCACAUCUACGAAUUCGUACCAUAUGAGAGGCUUAUCCGCUCACCGAGAUCGGAAGAGCACACGU
B4: target 1 G5U,A16U (mixed)
RNA 1: B1 RNA 1
RNA 2: B1 RNA 2 with A36U, G46C, G47U, G48C
B5: target 1 del17,del18 (mixed)
RNA 1: B1 RNA 1
RNA 2: GGGAAUGGAUCCACAUCUACGAAUUCGUACCAUAGAGGUUAUCCGCUCACCGAGAUCGGAAGAGCACACGU
B6: target 1 U10C,A16G (mixed)
RNA 1: B1 RNA 1
RNA 2: B1 RNA 2 with A36G, U42C, G46C, G48C
B7: target 1 insU 3' of 7,insU 3' of 7 (mixed)
RNA 1: B1 RNA 1
RNA 2: B2 RNA 2 with C46U, G47U, A48C, C49G, U50C
B8: target 1 C7G,C22A (mixed)
RNA 1: B1 RNA 1
RNA 2: B1 RNA 2 with C30A, C45G, G46C, G48C
B9: target 1 del7,del19 (mixed)
RNA 1: B1 RNA 1
RNA 2: GGGAAUGGAUCCACAUCUACGAAUUCGUACCAAGAGAGGUUAUCGCUCACCGAGAUCGGAAGAGCACACGU
B10: target 1 insA 3' of 19,insA 3' of 5 (mixed)
RNA 1: B1 RNA 1
RNA 2: B3 RNA 2 with U35A, C42U, U44A, A45U, U46C, C48G, G49A
B11: target 1 insC 3' of 15,insG 3' of 14 (mixed)
RNA 1: B1 RNA 1
RNA 2: B3 RNA 2 with U35G, G36A, A37G, G38C, C42G
B12: target 1 insU 3' of 21,insG 3' of 6 (mixed)
RNA 1: B1 RNA 1
RNA 2: B3 RNA 2 with A32U, U33A, A34U, U35A, C42U, U44A, A45U, U46C, C48G
B13: target 1 insG 3' of 18,insC 3' of 12 (mixed)
RNA 1: B1 RNA 1
RNA 2: B3 RNA 2 with U35G
B14: target 1 U10C,C21U (mixed)
RNA 1: B1 RNA 1
RNA 2: B1 RNA 2 with C31U, U42C, G46C, G48C
B15: target 1 insG 3' of 18,insC 3' of 17 (mixed)
RNA 1: B1 RNA 1
RNA 2: B3 RNA 2 with U35G, A37C, G38A, A39G, G40A, C42G
B16: target 1 insG 3' of 22,insC 3' of 8 (mixed)
RNA 1: B1 RNA 1
RNA 2: B3 RNA 2 with C31G, A32C, U33A, A34U, U35A, C42U, U44A, A45U, U46C
B17: target 1 insG 3' of 20,insA 3' of 13 (mixed)
RNA 1: B1 RNA 1
RNA 2: B3 RNA 2 with U33G, A34U, U35A, G41A, C42G
B18: target 1 insC 3' of 22,insG 3' of 9 (mixed)
RNA 1: B1 RNA 1
RNA 2: B3 RNA 2 with A32C, U33A, A34U, U35A, C42U, U44A, A45G
B19: target 1 U3G,G17U (mixed)
RNA 1: B1 RNA 1
RNA 2: B1 RNA 2 with G35U, G46C, G48C, U49G
B20: target 1 C7A,G15C (mixed)
RNA 1: B1 RNA 1
RNA 2: B1 RNA 2 with G37C, C45A, G46C, G48C
B21: target 1 insC 3' of 10,insA 3' of 7 (mixed)
RNA 1: B1 RNA 1
RNA 2: B2 RNA 2 with A43C, U44A, C45U, G47A, A48C, C49G, U50C
B22: target 1 U3A,C21U (mixed)
RNA 1: B1 RNA 1
RNA 2: B1 RNA 2 with C31U, G46C, G48C, U49A
B23: target 1 insU 3' of 22,insA 3' of 11 (mixed)
RNA 1: B1 RNA 1
RNA 2: B3 RNA 2 with C31U, A32C, U33A, A34U, U35A, C42U, U43A
B24: target 1 insA 3' of 8,insG 3' of 1 (mixed)
RNA 1: B1 RNA 1
RNA 2: B2 RNA 2 with C45A, G47C, A48G, U51C, C52A, A53G
B25: target 1 C6G,C21A (mixed)
RNA 1: B1 RNA 1
RNA 2: B1 RNA 2 with C31A, G48C
B26: target 1 C6U,G12A (mixed)
RNA 1: B1 RNA 1
RNA 2: B1 RNA 2 with G40A, G46U, G48C
B27: target 1 insU 3' of 15,insU 3' of 13 (mixed)
RNA 1: B1 RNA 1
RNA 2: B3 RNA 2 with U35G, G36A, A37G, G38U, G41U, C42G
B28: target 1 insG 3' of 18,insG 3' of 3 (mixed)
RNA 1: B1 RNA 1
RNA 2: B3 RNA 2 with U35G, C42U, U44A, A45U, U46C, C48G, G49C, C50U, U51G
B29: target 1 insA 3' of 12,insA 3' of 8 (mixed)
RNA 1: B1 RNA 1
RNA 2: B2 RNA 2 with U41A, A43U, U44A, C45U, C46A, G47C, A48C, C49G, U50C
B30: target 1 insG 3' of 19,insU 3' of 5 (mixed)
RNA 1: B1 RNA 1
RNA 2: B3 RNA 2 with A34G, U35A, C42U, U44A, A45U, U46C, C48G, G49U
B31: target 1 insC 3' of 18,insG 3' of 16 (mixed)
RNA 1: B1 RNA 1
RNA 2: B3 RNA 2 with U35C, A39G, G40A, C42G
B32: target 1 insC 3' of 19,insC 3' of 8 (mixed)
RNA 1: B1 RNA 1
RNA 2: B3 RNA 2 with A34C, U35A, C42U, U44A, A45U, U46C
B33: target 1 del4,del14 (mixed)
RNA 1: B1 RNA 1
RNA 2: B5 RNA 2 with U39G, A41U, U42A, C43U, G45C, C46G

target: T1, EsCas13d, nuclease-dead; experiment: crRNA (strand 1, pre-loaded); Mg2+; 40 mM Tris-HCl pH 7.5, 150 mM NaCl, 6 mM MgCl2, 1 mM DTT, 0.1% Tween-20, 0.2 mg/ml BSA; 25 C; 10 min per concentration, then washed; settings: tags: His6-TwinStrep-SUMO cleaved; N-terminal SNAP kept (SNAP-Surface 488); label: 3' end held by stalled T7 RNA polymerase

Binder	Kd [nM]
B1	3.71 ± 0.17
B2	9.8 ± 1
B3	~90
B4	66 ± 10
B5	13.9 ± 1.6
B6	62 ± 7
B7	7.9 ± 0.4
B8	14.2 ± 0.6
B9	52 ± 6
B10	16 ± 1.2
B11	22.7 ± 1.8
B12	28.1 ± 3
B13	~80
B14	8.5 ± 0.4
B15	89 ± 32
B16	~90
B17	32 ± 8

Binder	Kd [nM]
B18	33 ± 16
B19	20.8 ± 1.6
B20	84 ± 25
B21	11.2 ± 0.6
B22	19 ± 6
B23	66 ± 15
B24	18.3 ± 0.8
B25	24.3 ± 1.5
B26	11.1 ± 0.5
B27	20 ± 7
B28	40 ± 2.7
B29	37 ± 3.3
B30	86 ± 18
B31	70 ± 13
B32	52 ± 5
B33	84 ± 32
